In the DeepSol protein solubility set:

Assay: soluble on expression in E. coli; label from the status in PepcDB or PDB records

Soluble on expression in E. coli, not soluble:
MGSDKIHHHHHHMQRFKKWFLSIIKNFKQHEKIKIDLNNTKIDLNNTKIDLNNTKIDLNNTKIDLNNTKIDLNNTKIDLNNTKIDLNNTKIDLNNTKIELSQLKKEHYKVLDFHLRKITPQAFLEIVEIHLAESCNLNCFGCNHFSQIAEKEFPDIEIFKKDMQRLSEISKGIVGTFRLMGGEPLLNPNCIQFFDITRYFFPKSAIWLVTNGILLDKQNEDFWNSCQRNKMQIRPTKYPIKINWDLIKDKCDQYDIPLIFFNNGELEKTSWKFSLDPSGNCDNYHSFTNCSMANHCVQFKDGKLFTCTFPAHVQHFNKKYGNHFEVCEFDFIDIYKAKDYQEILFFLSKPIPFCRYCKVSQWAEIGKWRSSNKTKHEYLI
MGSDKIHHHHHHMQVLVVDYTAKDAAEKFVQSLHETGFAVLVNHPIKQSLVESIYKNWQEFFLSEEKHAFAFDPVKQDGYFSSEISETAKGHSKKDIKEYFHVYPWGRIPAQLNDEIFEYYRLASELAAELLDWVEEYSPADIADKYSETLSNMIKETPNTLLRILHYPPLTGNEEAGAVRAASHEDINLLTILPAANEPGLQVQRQNGEWIDVPSDFGNLIINIGDMLQETSAGYFPSTSHRVINPTGKGSDKSRISLPLFLHPRSEVVLSDKHTQASYLLERLRELGVKV
MGSDKIHHHHHHMRALSFIFIALILVGCNEPAKEITKPIRPIMWTKVKISPFEQIRTLSGIVAPVEATKLSFEVQGKIQTIEVNLGNEVVKGQELARLNQRNFNLGLQSAQAQYQQAKATLIDARNSHRRYEQLLKQGVVSQSGFDNAKATYDASKSAADVAQAQLDIASKNLQDSILLAPYDGIITKRLYEPSQQISAGQSLFEIEGKHGLEVHVMVPETLIRELRQLSILPIHFPVLPELTMQGQITEIGTRAEYANAFPVTAVLEGDNPLLRAGMTAEVDFSFSGTGRTGHTGDVFRIPATALSAGLEQKAYVFVYNPDSQQVIKTQVQTENIFKNEVFISSGLKQGDIIAIAGVAFLRDGQQVSLTDNNVQRFN
MGSDKIHHHHHHMRALVLAAGKGTRMKSKIPKVLHPLSGRPMIEWVIETAGKVAQKVGVVLGFEAELVRKALPEWVDVFVQGEQLGTAHAVMCAKDFIEPGDDVLILYGDVPLISENTLKRMIEEHRKGADVTILVADLEDPSGYGRVIQDGDKYRIIEDTDLPEELKSVTTINTGFYVFSGDFLLRALPEIKNENAKGEYYLTDAVNFAEKVRVVRTDDLLEITGVNTRKTLVWLEEQLRMRKIEELLENGVTILDPATTYIHYSVEIGMDTVIYPMTFIEGKSRVGENCEIGPMTRIVDCEIGNNVKITRSECFKSVIEDDVSVGPFARLREGTILKKSSKIGNFVEIKKSTIGEGTKAQHLSYIGDAFVGKNVNVGAGTITCNYDGKKKNPTFIEDGAFIGSNSSLVAPVRIGKGALIGAGSVITEDVPPYSLGLGRARQVVKEGWVLKKRKEE
MGSDKIHHHHHHMRDFLKSAFGRSKPKQLRILPQDVTIEIGQGQTLLEAALANGIAYPHDCTVGTCASCKTRLKQGRVREATPFGYTLSKDELDAGYILACQAFPKDELTVVEIDSSAGDLMPAEKYTANIIATEPLTHDILRVTVQTDRAVSYAAGQYANLRKAGGGRARSYSFANAPQRKGRTLLEFYIRKVPGGEFTESLFGGELKGVSLEMEAPLGTFHLRAGDSHMVCIAGGSGLAPLVSILEHARGNRIKRDCTLLFGARTQADLYQLDAIGSIASNWQGDFRFIPVLSDEPLDSDWKGARGLVTDHIAPGFCEGGEGYLCGPPLMIDAAIASLAKHGIPLEKVFYDKFTDSRDR
MGSDKIHHHHHHMREHDEGLLNGITPDRIRDHIRALEGVRHPLAAPEALERAAGYIRETFGSLGYPVADHLFMDGGREFANIIATHTGGSKSGRRVLVVAHYDTVTTTPGADDNASGVAVLLELATILKCLRFERCLQFVAVTLEENEDEHNPRDLGTRGSRALAAHARREGWEIEGAVVLESVAYAGDAVVQRTPAGIPFTVPATGNFIGVIGNEASRGMVDRFGQAVGSREAGLPWVPLVVPGNGGLLPDSRRSDHAPFWDHGYKAIMLTDTTNFRNPHYHQPSDTLETLNLDFAVQVCRATAALLLDIAKASEP
MGSDKIHHHHHHMREYIKEGIKLAVTNIPEDVVSAIREALEREESKIAKYNLEMILKAIDISRKEGIPVCQDTGTPIFFVRTNGPINKIYDEIVKGVEIATREVPLRPNALHVLDGKVIGNVPEVHFEPGKETLISILMKGGGSENCTALFPLTPAEGLEGVKNKVIEHVQSCGGKPCPPIIVGIGIASPAEKAIILAKKALLRRISERHPNEKLAKFERELLEEINSLGIGPMGLGGRTTALDVKVEVETRHPASYIVGVVIQCWAHRRAFIKVSEGGVKIWQ
MGSDKIHHHHHHMRFTEGLWRLREGVQLFRPEQVYEYSCDGKKLILRSPFRRVEHRGQTLQGPVFEIEISSPFENVIRIRFRHFKGVLEKPPYYEIYQDESFTPDIKETEGSFIFTSGKAKAIIRKNPFGVEFFYEDRFLTKSDLGYAVAPEGRFCLERLHLSVGEMIYGLGERFSAFVKNAQRVVMWNEDAGTISDMTYKNIPFYVSIRKYGVFVNDPGKVDFEIATEHVEKVQFSVKGETLDYFIIAGKDLKEVLERYTLLTGRPELPPAWSFGLWLTTSFTTQYDERTVMEFVDGMRERDIPLHVFHFDCFWMKEFHWVDLEWNRENFPDPEGLLKRLKEKGLKVCVWINPYVSQFSSLFDEGKEKGYFLKKPDGDVWQTDDWQPGMAIIDFTNPEVRKWFASKLERLIDMGVDCFKTDFGEKIPTDVVYYDGSDPEKMHNYYTYLYNKVVFETIERKLGKRNAVVFARSATAGSQKFPVHWGGDCLASYESMAETLRGGLSLALCGFGFWSHDIGGFEDITTPDLYKRWVAFGLLSSHSRLHGNSMYKVPWNFDEEAVEVLRFFTKLKCKLMPYIFASAVEVHERGIPVMRPMILEFPDDPTCLYLDRQYMLGESLLVAPIFSETGEVTYYLPEGVWTHFLTGERVEGGRWRTEKYDYFGLPLFTRPNSIIPTGSVDDRPDYDYADGVTLNVFEISNKTAHVYNTRGEVELSVKVERKGNEIHVEVLKDSRKPWKLLFWNERLEAVEGAETRELEKGTEVVLSFQRAILKTK
MGSDKIHHHHHHMRIEVVNVSHIFHRGTPLEKKALENVSLVINEGECLLVAGNTGSGKSTLLQIVAGLIEPTSGDVLYDGERKKGYEIRRNIGIAFQYPEDQFFAERVFDEVAFAVKNFYPDRDPVPLVKKAMEFVGLDFDSFKDRVPFFLSGGEKRRVAIASVIVHEPDILILDEPLVGLDREGKTDLLRIVEKWKTLGKTVILISHDIETVINHVDRVVVLEKGKKVFDGTRMEFLEKYDPRFFTSKMLVMRRLVLKGEDPFSMSDDELLERVCNS
MGSDKIHHHHHHMRIILASSSPRRRQLMELLGIEFEVEKPDVEEEFLESPEETVRELSLRKAEWVFKKRKEEEILVIGSDTVVVLDGNILGKPESLEEAKGMLKKLSGKWHVVYTGVAFVSSETKDVIVSSTKVRFRELPESVIDYYVEKYRPLDKAGAYGIQDFAAVFVEKIEGDFFTVVGFPLGMVWQYLYEKGWWKVASKREDDKGGARVAFG
MGSDKIHHHHHHMRILISPPMRFGKEFLGGMRRTLEVYSRMGEEVYLCVDERTLPQVDPEISPLLSKFHLVSSSSTDKKTYLKGFLNCLKYARKVDVLISYSEYSLSVYYTWLLSLFSRKPFIVVVHHVTEEIRGSKFLRTVIARSKGIICLDNPEVYEELKSLFPNKVILTSTNGVSVEDYYTSEEKICDGIFVGNYGERKGSRYLFQIWDKVNEKIDAKLCIIGKGWSEIPKNSVYYGFVTEREKIDLLAKSKVFVFPSLYEGFALAVTEALSAYLPVVTWDLKWSERYPVAIRVTYPDISSFAEEVVKLLKDEKLRKSIGEKSRELAKTLNWEKAAEMEKKAIYKIMESK
MGSDKIHHHHHHMRILLIHQNFPGQFKHLAPALVANGHEVRTLTLRQDLPDQWQGVTVHRYRAQRNSSPTVHPWVGDFETKVIRGEACFRAALQLRNQGYQPDLILAHPGWGETLFLQDVWPAAKLAIYCEFYYRSAGSDVDFDPEFQRPQGEEDTACRLQLKNLIYTMQGDRVTAGIAPTHWQADQFPEPLRSKITVVHDGIDTEAIAPNPSATITLNNQLKLGRNDEVITFVNRNLEPYRGYHIFMRSLPEILQQRPKARVILVGGDDVSYGARPPAGTWKQIFLKEVADRLDLSRVHFVGKIPYNAFLSLLQVSSVHVYLTYPFVLSWSLIEAMSCGCAIVASDTAPVREVISDGETGRLVNFFDPAGLAATVSELLASPSARAKLGKKARLFAQNHYDLQRVCLPQQMQWVRSLA
MGSDKIHHHHHHMRILLSVSRFEDELIEILDRLDETYEIFADNDCFEILKDRIPRIRPFERDDFDLLYLNWRDLPSEKREEKILSTIDENRTLLFLKAIKNYREKLVVTTLEDLKLTFSEIERAGDVSLQTRRYLLLKGLAHFLKVHSEVLESLSDLFFIKDWKAIVLERLQEGIKAPVSLLPVSIPPELVEDIGLASHLIRFLPQKACVLVKNGKIVYASSTGDLPEIEGGVFALKGVFRGEKKFDFILAEDFEGDVEGLRIKDLLHQEEGLVLLGASGYLREPVPTNDFTEVLSMHPVFDSCAVTKEGKLVLHVVELNRSDVINALEKIDLSGTEVAFNFPISDEEKAELKQKGVKKVSWIDSRRIWRRC
MGSDKIHHHHHHMRILRVAQDIFPDKVGGAPYHIHALSRDQAEMGHDVTVLTVSNDQSKPQTEQRAGYTLVRLSPRIELFGNALFAGTVKYLRNAREYDVVHAHSHLFFSSNLTAAYSRVTDIPLAVTCHGLMSQRVPEWFSRFHLNTVGRFTYNAADVLFSYTAPERERLRDLGVSSDIRVIHNGIDVDRFTPVGATYDRITDATGPAVVFVGRLVEGKRPRDVLKAFQTVQNNIPEAKLFFCGDGPLRDKLEQIVERENMRESIRFLERVPYQEMPAVYRAADLFVLASRTEGFPRSVMESMACATPILSTRLEQTEQVIEQAGRTVPVGDTTALADAMSSMLDDRAALRKLGQAGREIVMREYDWSETVEQTTQTLGTISTSTPSQQQVDSGQAEEQVIPAGSNTEHEQ
MGSDKIHHHHHHMRIPEEIIKLVDTPEFQRLRGVKQLGLANLVYPGANHTRFEHSLGTWYLARKLSLELQLPREDSLLIQLAALLHDIGHGPFSHTFERIYRDRLDFHDHMEVSRRIVEGKIQICEDGGELPDIISSLGYEPREVGELIVGKHKKRYLRMIIHGDIDVDQLDYLTRDAHYTGVAHGIIDLERLLTVMRVFNGELVIDEKGIEAVEGMLVARSLMYSRVYFHRTVKIAEGMLIRAVEFALDEGELEDFWKMTDDRLVIELEDLGDFPGDIIRRIRRRKLFKAAVIIGPEDLTAEEKKSLTTLYRSQKKRKKIESELAEIVGAREGEVMVELSIPELILSEPRLKQVEVNVLLSGGKVEPIGKVTPLASAIKRRQTPRWILLVATLPEYMEGVKRVWREVILE
MGSDKIHHHHHHMRKLKIGITCYPSVGGSGIIATELGKQLAEKGHEIHFITSSIPFRLNTYHPNIHFHEVEVNQYAVFKYPPYDLTLASKIAEVAERENLDIIHAHYALPHAVCAYLAKQMLKRNIGIVTTLHGTDITVLGYDPSLKDLIRFAIESSDRVTAVSSALAAETYDLIKPEKKIETIYNFIDERVYLKKNTAAIKEKHGILPDEKVVIHVSNFRKVKRVQDVIRVFRNIAGKTKAKLLLVGDGPEKSTACELIRKYGLEDQVLMLGNQDRVEDLYSISDLKLLLSEKESFGLVLLEAMACGVPCIGTNIGGIPEVIKNNVSGFLVDVGDVTAATARAMSILEDEQLSNRFTKAAIEMLENEFSSKKIVSQYEQIYADLAEPE
